From paper PMC2213614 (The Journal of Cell Biology, 2008)

Target: T1, GST-[change] (aa 1–320) (S. cerevisiae, UniProt P33332 1-320)
T1 sequence: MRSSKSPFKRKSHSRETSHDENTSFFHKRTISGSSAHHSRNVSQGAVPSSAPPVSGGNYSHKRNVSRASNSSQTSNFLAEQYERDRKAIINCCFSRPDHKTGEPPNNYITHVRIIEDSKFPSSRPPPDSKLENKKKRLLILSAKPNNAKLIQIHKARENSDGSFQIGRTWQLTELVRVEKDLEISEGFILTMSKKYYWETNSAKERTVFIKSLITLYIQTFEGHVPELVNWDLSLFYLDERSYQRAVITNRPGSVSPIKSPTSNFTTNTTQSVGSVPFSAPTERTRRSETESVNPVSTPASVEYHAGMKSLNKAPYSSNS
Assay: pull-down

B1: Hisx6-Cdc42 (natural protein)
chain: not shown
B1: binds.
